This note sets out measurements from paper PMC6037025.

The target in this assay is CHIP (UniProt Q9UNE7). In words: co-IP with anti-MYC-agarose, Western blot. Conditions: reference: Flag-IRS4 wild type; sites S859.

For “IRS4 (from UniProt O14654) Flag-IRS4 S859A”, the “binding against the reference” value was “lost”.
